Laboratory results taken from the Human Domainome abundance scans (Beltran et al. 2025).
± gives the uncertainty stated by the source.

B1: Ankyrin-1, residues 1405 to 1484; numbered along this chain, P16157 (parent)
chain: MKMAVISEHLGLSWAELARELQFSVEDINRIRVENPNSLLEQSVALLNLWVIREGQNANMENLYTALQSIDRGEIVNMLE

Variants of: B1
Assay: abundance fitness (aPCA) (normalised: wild type 0, dead -1); higher = more abundant; growth selection in yeast, the domain comes from the species named
Conditions: Homo sapiens
P36A gave an abundance fitness of 0.016 ± 0.071.
P36V showed an abundance fitness of -0.666 ± 0.12.
Work on P36G yielded an abundance fitness of -0.298 ± 0.071.
Work on E16C yielded an abundance fitness of -0.271 ± 0.083.
E16F gave an abundance fitness of -0.23 ± 0.15.
For E16K, the abundance fitness was -0.088 ± 0.086.
L39C showed an abundance fitness of 0.066 ± 0.14.
L39G showed an abundance fitness of -0.423 ± 0.15.
With L39E the abundance fitness was 0.105 ± 0.09.
L39T gave an abundance fitness of 0.116 ± 0.16.
Variant L39I has an abundance fitness of -0.41 ± 0.43.
L39W showed an abundance fitness of -0.262 ± 0.09.
With L67H the abundance fitness was -0.911 ± 0.34.
L67R showed an abundance fitness of -0.803 ± 0.097.
L67I showed an abundance fitness of -0.156 ± 0.14.
In the case of L67A, the abundance fitness is reported as -0.895 ± 0.22.
In the case of L67G, the abundance fitness is reported as -0.852 ± 0.097.
Work on L67M yielded an abundance fitness of -0.092 ± 0.1.
For R19N, the abundance fitness was -0.32 ± 0.23.
R19L gave an abundance fitness of 0.025 ± 0.053.
Work on R19M yielded an abundance fitness of 0.003 ± 0.1.
With R19Y the abundance fitness was -0.434 ± 0.17.
In the case of R19V, the abundance fitness is reported as -0.072 ± 0.057.
Work on R19W yielded an abundance fitness of -0.268 ± 0.09.
In the case of R19G, the abundance fitness is reported as -0.229 ± 0.042.
R19S showed an abundance fitness of -0.123 ± 0.084.
V25R gave an abundance fitness of -0.07 ± 0.046.
Work on V25E yielded an abundance fitness of 0.078 ± 0.06.
N62C showed an abundance fitness of -0.126 ± 0.11.
With N62Y the abundance fitness was 0.002 ± 0.11.
Variant N62R has an abundance fitness of 0.032 ± 0.1.
In the case of L49I, the abundance fitness is reported as -0.058 ± 0.1.
L49Y gave an abundance fitness of -0.037 ± 0.069.
For L49K, the abundance fitness was 0.047 ± 0.1.
For L49M, the abundance fitness was 0.061 ± 0.047.
With Q22W the abundance fitness was -0.506 ± 0.088.
Variant Q22S has an abundance fitness of 0.018 ± 0.055.
Q22N gave an abundance fitness of -0.077 ± 0.22.
Q22T showed an abundance fitness of -0.044 ± 0.072.
Variant Q22A has an abundance fitness of -0.066 ± 0.063.
A4G showed an abundance fitness of 0.084 ± 0.071.
With A4K the abundance fitness was 0.148 ± 0.18.
A4N gave an abundance fitness of -0.035 ± 0.13.
A4P showed an abundance fitness of -0.612 ± 0.19.
Work on A4V yielded an abundance fitness of -0.35 ± 0.074.
For A4F, the abundance fitness was -0.206 ± 0.14.
Work on L10R yielded an abundance fitness of -0.895 ± 0.16.
D27P showed an abundance fitness of -0.822 ± 0.23.
For D27C, the abundance fitness was -0.063 ± 0.15.
For N59G, the abundance fitness was -0.151 ± 0.058.
Work on N59H yielded an abundance fitness of -0.376 ± 0.28.
Variant E34N has an abundance fitness of -0.134 ± 0.35.
Work on E34R yielded an abundance fitness of -0.204 ± 0.12.
With E34W the abundance fitness was -0.559 ± 0.28.
In the case of V76L, the abundance fitness is reported as -0.054 ± 0.06.
For V76K, the abundance fitness was -0.283 ± 0.14.
L21F gave an abundance fitness of -0.69 ± 0.29.
Variant L21I has an abundance fitness of -0.425 ± 0.38.
For L21A, the abundance fitness was -1.02 ± 0.28.
With Q42F the abundance fitness was -0.899 ± 0.25.
With Q42M the abundance fitness was -0.172 ± 0.12.
In the case of Q42L, the abundance fitness is reported as -0.863 ± 0.11.
With Q42A the abundance fitness was -0.257 ± 0.064.
R30E gave an abundance fitness of -0.292 ± 0.13.
R30G gave an abundance fitness of -0.236 ± 0.05.
R30F showed an abundance fitness of -0.518 ± 0.18.
With R30P the abundance fitness was -1.1 ± 0.21.
Variant R30N has an abundance fitness of -0.134 ± 0.071.
Variant N48E has an abundance fitness of -0.458 ± 0.11.
Work on N48M yielded an abundance fitness of -0.575 ± 0.11.
N48L showed an abundance fitness of -0.835 ± 0.091.
For N48W, the abundance fitness was -0.834 ± 0.2.
In the case of N48R, the abundance fitness is reported as -0.006 ± 0.052.
M60N showed an abundance fitness of -0.723 ± 0.47.
For M60W, the abundance fitness was 0.055 ± 0.18.
In the case of M60S, the abundance fitness is reported as -0.28 ± 0.14.
Work on M60H yielded an abundance fitness of 0.243 ± 0.24.
M78L gave an abundance fitness of 0.001 ± 0.059.
For M78A, the abundance fitness was -0.003 ± 0.061.
M78F showed an abundance fitness of -0.146 ± 0.11.
Work on M78R yielded an abundance fitness of 0.034 ± 0.051.
M78N showed an abundance fitness of -0.01 ± 0.15.
M3R showed an abundance fitness of -0.045 ± 0.038.
M3L showed an abundance fitness of 0.208 ± 0.049.
In the case of M3C, the abundance fitness is reported as -0.385 ± 0.07.
M3D gave an abundance fitness of -0.332 ± 0.28.
M3E gave an abundance fitness of -0.275 ± 0.093.
Y64P showed an abundance fitness of -0.725 ± 0.22.
Y64A showed an abundance fitness of -0.494 ± 0.12.
For Y64Q, the abundance fitness was -0.594 ± 0.2.
Q68H gave an abundance fitness of -0.029 ± 0.24.
With Q68D the abundance fitness was -0.109 ± 0.11.
Work on Q68K yielded an abundance fitness of 0.169 ± 0.14.
Q68N gave an abundance fitness of 0.003 ± 0.13.
Variant R72T has an abundance fitness of -0.797 ± 0.21.
Variant R72E has an abundance fitness of -0.647 ± 0.11.
With R72I the abundance fitness was -0.753 ± 0.22.
With R72S the abundance fitness was -0.57 ± 0.11.
R72Q showed an abundance fitness of -0.275 ± 0.1.
Work on R72L yielded an abundance fitness of -0.581 ± 0.087.
In the case of R72M, the abundance fitness is reported as -0.356 ± 0.13.
R72A gave an abundance fitness of -0.632 ± 0.1.
For V5F, the abundance fitness was 0.103 ± 0.091.
Variant V5K has an abundance fitness of -0.279 ± 0.12.
Variant V5T has an abundance fitness of -0.266 ± 0.089.
In the case of Q56R, the abundance fitness is reported as -0.02 ± 0.046.
In the case of Q56M, the abundance fitness is reported as -0.061 ± 0.11.
With Q56G the abundance fitness was -0.035 ± 0.05.
For Q56V, the abundance fitness was 0.07 ± 0.065.
Work on Q56A yielded an abundance fitness of -0.113 ± 0.091.
Q56W showed an abundance fitness of -0.232 ± 0.16.
For E74K, the abundance fitness was -0.471 ± 0.12.
Work on E74R yielded an abundance fitness of -0.65 ± 0.092.
Variant E74P has an abundance fitness of -0.264 ± 0.1.
With E74A the abundance fitness was -0.364 ± 0.095.
In the case of E74C, the abundance fitness is reported as -0.469 ± 0.16.
F23I gave an abundance fitness of 0 ± 0.1.
F23V showed an abundance fitness of -0.144 ± 0.067.
For F23K, the abundance fitness was -0.786 ± 0.18.
For F23P, the abundance fitness was -0.918 ± 0.21.
Work on I52G yielded an abundance fitness of -0.351 ± 0.35.
A66W gave an abundance fitness of -0.99 ± 0.32.
For A66D, the abundance fitness was -0.884 ± 0.15.
In the case of A66V, the abundance fitness is reported as -0.749 ± 0.097.
Work on A66H yielded an abundance fitness of -0.151 ± 0.087.
For A66I, the abundance fitness was -0.564 ± 0.28.
Work on A66L yielded an abundance fitness of -0.977 ± 0.11.
N29C showed an abundance fitness of -0.184 ± 0.12.
N29W gave an abundance fitness of -0.148 ± 0.051.
In the case of N29F, the abundance fitness is reported as -0.376 ± 0.14.
With N29Q the abundance fitness was -0.041 ± 0.077.
N29A showed an abundance fitness of -0.062 ± 0.052.
For N29H, the abundance fitness was -0.37 ± 0.2.
Variant N29D has an abundance fitness of 0.041 ± 0.079.
For N29I, the abundance fitness was -0.123 ± 0.16.
In the case of N29P, the abundance fitness is reported as -0.952 ± 0.22.
In the case of S38K, the abundance fitness is reported as -0.386 ± 0.25.
Variant S38D has an abundance fitness of -0.048 ± 0.2.
For S38C, the abundance fitness was -0.099 ± 0.087.
Variant S38T has an abundance fitness of -0.291 ± 0.13.
S38F gave an abundance fitness of -0.345 ± 0.17.
S38L showed an abundance fitness of -0.781 ± 0.16.
For A15Y, the abundance fitness was 0.128 ± 0.17.
L17C showed an abundance fitness of -0.81 ± 0.2.
In the case of L17F, the abundance fitness is reported as 0.009 ± 0.11.
L17G gave an abundance fitness of -0.972 ± 0.12.
Work on L17R yielded an abundance fitness of -1.03 ± 0.17.
In the case of D71N, the abundance fitness is reported as 0.006 ± 0.083.
In the case of D71W, the abundance fitness is reported as -0.827 ± 0.14.
Variant D71T has an abundance fitness of -0.385 ± 0.15.
D71Q gave an abundance fitness of -0.274 ± 0.11.
In the case of D71G, the abundance fitness is reported as 0.095 ± 0.04.
In the case of D71M, the abundance fitness is reported as -0.127 ± 0.14.
D71H showed an abundance fitness of -0.192 ± 0.18.
With L46M the abundance fitness was -0.201 ± 0.039.
For L46G, the abundance fitness was -0.953 ± 0.13.
With L46W the abundance fitness was -0.638 ± 0.096.
In the case of L46D, the abundance fitness is reported as -1.1 ± 0.41.
L46K gave an abundance fitness of -0.741 ± 0.31.
In the case of L46N, the abundance fitness is reported as -0.878 ± 0.36.
In the case of V33R, the abundance fitness is reported as 0.021 ± 0.038.
Variant V33F has an abundance fitness of 0.021 ± 0.12.
V33H showed an abundance fitness of -0.043 ± 0.049.
I75L showed an abundance fitness of -0.199 ± 0.08.
With I75F the abundance fitness was -0.785 ± 0.45.
I75W gave an abundance fitness of -0.663 ± 0.17.
Work on I75E yielded an abundance fitness of -0.766 ± 0.23.
